From the DeepSol protein solubility set

Experiment: soluble on expression in E. coli; label from the status in PepcDB or PDB records

Sequence	soluble on expression in E. coli
MGSDKIHHHHHHMNQIDRLLTIMQRLRDPENGCPWDKEQTFATIAPYTLEETYEVLDAIAREDFDDLRGELGDLLFQVVFYAQMAQEEGRFDFNDICAAISDKLERRHPHVFADSSAENSSEVLARWEQIKTEERAQKAQHSALDDIPRSLPALMRAQKIQKRCANVGFDWTTLGPVVDKVYEEIDEVMYEARQAVVDQAKLEEEMGDLLFATVNLARHLGTKAEIALQKANEKFERRFREVERIVAARGLEMTGVDLETMEEVWQQVKRQEIDL	not soluble
MNASQPPPGGRLPDEVFRKITAVDQGQSTLTQSGIQGLSARTLSSEPRGDLVFQLVEIIKKPGQSLGLYLREGNGKDRSDGVFVSRFGDNSELAKYGEVMRPGDEILTINNVEVSMMSIDDVVLILSIPRRLLLRIRYSKSMRHEIISSRSRESERPVVVFHKYDDRRDSETNAPILSQPTSTANTWLGKKSRQQMEEMRNATTSSTLRTHASTSSPRNHFAPRLVNGHSHSIGVPSASTTSHDHQYQRFASEPSDSVSRTARVPPPRLASATVRRTESFNSAPGVSTSAPMYTLPRSSTAVPPPDILGSIPYSARDPLMRSSADLPYDPMTGRLSSSVPTDPLLSRSLCSPILPRTLRQANDSNKSNSLPRRRIMTGGRNVKWRNDVVSTSDLCGEESDGAISAPEYSSPPFSRLTQQQQFRLSNGSPGRTVNDIFSAAEYRNWAGPYDPRGMYGPFPPGQRATRWSHTYGEQRAPRTSSLPGRTVLAQSLVGSPVLPRHPPPIVQDRPSAVFDRYHVSPLMNRRAPLRAAGPGINVDRLSVSSLTGILYVHIVEGRGLKIPEKQKGLTEEMYCVLEVDEQHRARTGVSTIEQKFKWRETFHIDVVNATVSNFFVYSWHPQFRHKLCHKGSLKLLEAFVVDQLNDDRVFALNLEPRGQLIVRIGFHDLQAVFRRTVNPRLNGVFGISLSRLVQRERRDTPIVLTRLIQEIEKRGVDYSGLYVLCGSVEKKKMLRAELESNPLGTELAAESIPDTNVIACLIKDFLRELPEPLISPQIHGMLLEAASVALPNDVQTNRHLVLKIIDCLQLSAKNCLLLVLDHLSTVLCSSPHNGLTPTRLSLIFAPLLFFCLDTFSPYTISPTSKMAAVRTLDINQASSSLQMILSIWPSRVSELVEFFPFLLNYPTVSYSSPNPHSESGSDSPATTCQKGGVIAYVSESQC	not soluble
MGSDKIHHHHHHMAHIFVYGTLKRGQPNHKVMLDHSHGLAAFRGRGCTVESFPLVIAGEHNIPWLLYLPGKGHCVTGEIYEVDEQMLRFLDDFEDCPSMYQRTALQVQVLEWEGDGDPGDSVQCFVYTTATYAPEWLFLPYHESYDSEGPHGLRYNPRENR	soluble
MHEYSIVSALIEQCEQYAKANQATKVTRVEIKLGVMSGVEPALLQTAFETFKLDGICREAKLCMTLQPLVIKCADCQQESVLDERSIVCPACNSYHTRVLDGEEMLLMQLEMEQAEDA	soluble
MASLIQVRDLLALRGRMEATQISHTLHAPQPMIDAMLNQLEIMGKAVRIPEEPDGCLSGSCKSCPEGKACLREWWALR	not soluble
MTSKIALFDQTLIASLLQPLSLNQPDFKAYKTKVKLKISEQRNETSGEKELKFEISRSDDFEFLFSETLNNEKYQILARDHDLTVDFDAFPKVIIQHLLCKNIVKNLEEDGEVDARKKAGYHSIADPGKPTEINIILDAEKNFCSFELFSKTPISKGKIFSIKLHAVRGDHLISHLLKICSSQAVKLSTFYKSADELASLRQKCGDLEKQVEKLSGVKEEFEEMSEKFKELEDEVELVKEERENIRLLVEDKEDEVADLKQDTESLQKQLEENQEELEIVGNMLREEQGKVDQLQKRNVAHQKEIGKLRAELGTAQRNLEKADQLLKRNSQQQNQQSLDMRKLGELEADLKEKDSMVESLTETIGILRKELENEKLKAAENMDSFEKLSMENENLKEKIAHYRAQRFSPAPSGLPGLQTGLTNRLTPSFKPVLGPHTPYGANLNSRTPFRDNTTLNFQNSTIATPHAFRFNSQLIADETTGSSVTNTPPAQR	not soluble
MKAVYPGSFDPITLGHVDIIKRALSIFDELVVLVTENPRKKCMFTLEERKKLIEEVLSDLDGVKVDVHHGLLVDYLKKHGIKVLVRGLRAVTDYEYELQMALANKKLYSDLETVFLIASEKFSFISSSLVKEVALYGGDVTEWVPPEVARALNEKLKEGKR	not soluble
MLLNEKDFKNEGVKIAALIMAESARTAPKSKGEDTIEIVYVDGEEMEKIAAKMEEMAEGGDKDFIRDAESVRKSQAILLIGAKGDRTVGVNCQACGFESCSEFKKADRKGENFVGPNCAFRMIDLGIALGSAVKVSAMLGIDTRIMYRIGIAAKKLGMIDADVVMGVPLSALGKSPYFDRAPKK	not soluble
